Target: T1, FimL fused to T18 or T25 (BACTH) (P. aeruginosa PAO1, UniProt Q9I2S3 1-562)
T1 sequence: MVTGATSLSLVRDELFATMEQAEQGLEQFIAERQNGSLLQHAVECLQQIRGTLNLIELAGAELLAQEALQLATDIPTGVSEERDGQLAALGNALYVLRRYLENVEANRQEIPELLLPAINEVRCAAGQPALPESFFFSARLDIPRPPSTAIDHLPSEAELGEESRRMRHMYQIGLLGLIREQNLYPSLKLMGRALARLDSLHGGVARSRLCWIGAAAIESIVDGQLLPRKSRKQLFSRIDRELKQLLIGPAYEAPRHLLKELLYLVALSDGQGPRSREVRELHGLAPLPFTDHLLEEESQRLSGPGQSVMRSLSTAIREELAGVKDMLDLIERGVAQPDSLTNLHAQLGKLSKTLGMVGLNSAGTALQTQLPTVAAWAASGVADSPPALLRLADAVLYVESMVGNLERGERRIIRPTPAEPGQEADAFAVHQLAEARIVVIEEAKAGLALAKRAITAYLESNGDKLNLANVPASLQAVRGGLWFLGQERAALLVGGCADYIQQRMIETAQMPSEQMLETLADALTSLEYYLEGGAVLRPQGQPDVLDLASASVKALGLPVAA
Test: two-hybrid

B1: PilG fused to T18 or T25 (BACTH) (natural protein)
chain: MEQQSDGLKVMVIDDSKTIRRTAETLLKKVGCDVITAIDGFDALAKIADTHPNIIFVDIMMPRLDGYQTCALIKNNSAFKSTPVIMLSSKDGLFDKAKGRIVGSDQYLTKPFSKEELLGAIKAHVPSFTPVDAVS
- fold increase in β-galactosidase activity over controls: ~20 fold
